From the supplement of paper PMC10126150 come the findings set out here.

This series concerns ATP. As to the kind of experiment: switch fluorescence ratio, 500 uM ATP over buffer (Cy3 cluster intensity, sum of 5 cycles each) (fold (ratio)); higher = stronger signal-on switching upon ATP binding; sequences stand for … in TCGTCGGCAGCGTCAGATGTGTATAAGAGACAGTTTTTTTTTTTTTTTTTTTTTTTTT…TC. As to conditions: aptamer strand: ATP DNA aptamer (quencher-CACCTGGGGGAGTATTGCGGAGGAAGG + anchor), 100 nM annealed; ATP concentration: 500 uM. The gist of the method:
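Clusters carrying Cy3-labelled switching strands on a modified Illumina MiSeq flow-cell were annealed to 100 nM quencher-labelled ATP aptamer and imaged in selection buffer. They were imaged again after 15 min with 500 uM ATP at 22 °C, over five buffer/ATP cycles with NaOH stripping and re-annealing in between. For each cluster, the fluorescence ratio is the summed Cy3 intensity of the target cycles divided by that of the buffer cycles, averaged per switch-domain sequence. Clusters outside 100-1000 RFU were left out.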

± gives the standard deviation of the averaged measurements.
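Note: ATP exposure 15 min at 22 °C before imaging.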

On to GGGCAATTGG, for which the switch fluorescence ratio is 0.992 ± 0.0056. Turning to GGGCACTCTT, the switch fluorescence ratio amounted to 1 ± 0.011. As for GGGCACTTGT, the switch fluorescence ratio is 1.01 ± 0.04. In the case of GGGCAGGCGA, the switch fluorescence ratio was 1.011 ± 0.0077. Consider GGGCAGGTGG, for which the switch fluorescence ratio was 1.08 ± 0.065. The result for GGGCATAGG reads 1.008 ± 0.0014. In the case of GGGCATGGAA it was 0.969 ± 0.018; in that of GGGCCAAGTA, 0.983 ± 0.033.

As to GGGCCACTCG, the switch fluorescence ratio amounted to 0.9716 ± 0.0096. For the sequence GGGCCCAGCT, the switch fluorescence ratio was determined as 1.02 ± 0.031. For the sequence GGGCCGAATG, the switch fluorescence ratio was 1.009 ± 0.0025. With GGGCCTGAGG, the switch fluorescence ratio was 0.969 ± 0.028.

For GGGCCTTTTC, the switch fluorescence ratio was 1 ± 0.056.

On to GGGCGACACG, for which the switch fluorescence ratio was 1 ± 0.06. In the case of GGGCGACTGT it was 0.978 ± 0.023. GGGCGATGTT: the switch fluorescence ratio worked out at 0.984 ± 0.04.

As to GGGCGCAGCG, the switch fluorescence ratio was 0.978 ± 0.031. With GGGCGCAGGG, the switch fluorescence ratio was found to be 1.01 ± 0.01. Regarding GGGCGCCTAA, the switch fluorescence ratio was found to be 1 ± 0.046. The result for GGGCGCCTGC reads 0.9942 ± 0.0065; that for GGGCGGGGGT, 1.02 ± 0.019; that for GGGCGGTTTG, 0.971 ± 0.046. Turning to GGGCGTACGG, the switch fluorescence ratio was 1.06 ± 0.045.

For GGGCGTTTCG, the switch fluorescence ratio stood at 1.005 ± 0.0089. Take GGGCTAAGGG: the switch fluorescence ratio stood at 0.985 ± 0.056. Consider GGGCTAGGCA, for which the switch fluorescence ratio came to 1.02 ± 0.014.

Take GGGCTAGGGG: the switch fluorescence ratio amounted to 0.994 ± 0.029. The result for GGGCTAGGTT reads 0.986 ± 0.031; that for GGGCTAGTAC, 1.13 ± 0.017; that for GGGCTATCAT, 0.965 ± 0.012.

GGGCTATTAT: the switch fluorescence ratio came to 1.02 ± 0.081. With GGGCTCAGGC, the switch fluorescence ratio amounted to 0.988 ± 0.0094. Consider GGGCTGCCGA, for which the switch fluorescence ratio stood at 1.03 ± 0.021. Consider GGGCTGTCTG, for which the switch fluorescence ratio came to 0.9631 ± 0.0076. In the case of GGGCTTCAGA it was 0.987 ± 0.023. For GGGCTTCTTG, the switch fluorescence ratio stood at 0.962 ± 0.021. For the sequence GGGCTTCTTT, the switch fluorescence ratio amounted to 0.996 ± 0.034. As for GGGCTTTATA, the switch fluorescence ratio was 1.02 ± 0.014.

In the case of GGGGAAAAAA, the switch fluorescence ratio came to 1.06 ± 0.14.

In the case of GGGGAAAAAG, the switch fluorescence ratio is 1.01 ± 0.028.

Regarding GGGGAAAAGA, the switch fluorescence ratio was 1 ± 0.025.

On to GGGGAAAGAA, for which the switch fluorescence ratio amounted to 1.02 ± 0.064. As to GGGGAACACT, the switch fluorescence ratio amounted to 1.01 ± 0.022. As for GGGGAAGACT, the switch fluorescence ratio was found to be 0.989 ± 0.016. As for GGGGAAGATT, the switch fluorescence ratio amounted to 0.986 ± 0.03. As to GGGGAAGGT, the switch fluorescence ratio came to 1.04 ± 0.019. For the sequence GGGGAAGGTT, the switch fluorescence ratio turned out to be 0.991 ± 0.037. For GGGGAATCAG, the switch fluorescence ratio was found to be 1.03 ± 0.017. Consider GGGGAATGCT, for which the switch fluorescence ratio came out at 1.01 ± 0.02. Turning to GGGGAATGTA, the switch fluorescence ratio came to 0.971 ± 0.022. The result for GGGGAATTAA reads 0.99 ± 0.018.

On to GGGGAATTCA, for which the switch fluorescence ratio stood at 1.04 ± 0.046. Regarding GGGGAATTCG, the switch fluorescence ratio was determined as 1.02 ± 0.043. Consider GGGGAATTTT, for which the switch fluorescence ratio was 1.01 ± 0.037. In the case of GGGGACAGGG it was 1.01 ± 0.051; in that of GGGGACAGGT, 1.03 ± 0.0057. GGGGACCGGG: the switch fluorescence ratio was determined as 1.07 ± 0.094.

In the case of GGGGACCTAT, the switch fluorescence ratio is 1.02 ± 0.018. Turning to GGGGACTACT, the switch fluorescence ratio is 1 ± 0.025. Take GGGGACTGAT: the switch fluorescence ratio came to 0.995 ± 0.022. In the case of GGGGACTGGT, the switch fluorescence ratio is 1 ± 0.043.

With GGGGACTTGC, the switch fluorescence ratio was 0.9913 ± 0.0045. For GGGGAGCAGC, the switch fluorescence ratio came to 1.11 ± 0.22. Turning to GGGGAGCATT, the switch fluorescence ratio is 1.04 ± 0.013.

On to GGGGAGGGAT, for which the switch fluorescence ratio was 0.996 ± 0.017.

On to GGGGAGGGCT, for which the switch fluorescence ratio came to 0.964 ± 0.033. The result for GGGGAGGGGC reads 1.01 ± 0.065; that for GGGGAGGTCT, 1.01 ± 0.03.

Regarding GGGGAGGTTC, the switch fluorescence ratio was determined as 1 ± 0.031. Regarding GGGGAGTGTT, the switch fluorescence ratio stood at 0.998 ± 0.039. On to GGGGAGTTAG, for which the switch fluorescence ratio turned out to be 1.01 ± 0.013. Regarding GGGGATAAGT, the switch fluorescence ratio was determined as 1.04 ± 0.054. GGGGATACAG: the switch fluorescence ratio worked out at 0.995 ± 0.012. With GGGGATATAT, the switch fluorescence ratio amounted to 1 ± 0.035. In the case of GGGGATATTT, the switch fluorescence ratio was 1 ± 0.014. In the case of GGGGATCGCG, the switch fluorescence ratio came to 0.986 ± 0.033. In the case of GGGGATGAGA, the switch fluorescence ratio was 0.986 ± 0.01. The result for GGGGATGGTA reads 0.978 ± 0.025.
